Ends that are not written are not given here.

In the first assay the target is T1, human IL-2Rβ (CD122 protein, Fc Tag) (27-239) (human, UniProt P14784 27-239).
T1 construct: range 27-239; Bought protein; also called IL-2Rβ subunit; IL-2Rβ-Fc; not shown: Fc Tag of the bought protein (ACRObiosystems ILB-H5253)
T1 sequence (looked up): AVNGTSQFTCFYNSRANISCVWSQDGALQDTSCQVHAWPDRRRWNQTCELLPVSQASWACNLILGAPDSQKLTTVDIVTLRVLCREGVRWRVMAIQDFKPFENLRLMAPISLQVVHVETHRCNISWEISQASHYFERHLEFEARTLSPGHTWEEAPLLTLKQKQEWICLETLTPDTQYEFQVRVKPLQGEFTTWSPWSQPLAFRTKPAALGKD
The experiment in a line: IC50, method not told in the paragraph.
RSCYYKRPRLWCSE [IL-2Rβ ligand SEQ ID NO: 1044] returned a concentration for half-maximal inhibition (IC50) of under 10 µM.

NMCLVGDYWPSCQI [IL-2Rβ ligand SEQ ID NO: 169] displayed an IC50 of under 10 µM. Still for that read-out and setting: the figure for RWGDVGDLLMPL [IL-2Rβ ligand SEQ ID NO: 1043] is under 10 µM; for QICDVGQWWPDCQV [IL-2Rβ ligand SEQ ID NO: 170] it is under 10 µM; for CCYQAMVGDLCDFC [IL-2Rβ ligand SEQ ID NO: 83] it is under 10 µM. On the same count and under the same terms, the figure for CGMAIGDLCMWT [IL-2Rβ ligand SEQ ID NO: 1084] is under 10 µM.

Another assay addresses T2, human IL-2Rγc (CD132 protein, Fc Tag) (23-254) (human, UniProt P31785 23-254).
T2 construct: range 23-254; Bought protein; also called IL-2Rγc subunit; γc subunit; not shown: Fc Tag of the bought protein (ACRObiosystems ILG-H5256)
T2 sequence (looked up): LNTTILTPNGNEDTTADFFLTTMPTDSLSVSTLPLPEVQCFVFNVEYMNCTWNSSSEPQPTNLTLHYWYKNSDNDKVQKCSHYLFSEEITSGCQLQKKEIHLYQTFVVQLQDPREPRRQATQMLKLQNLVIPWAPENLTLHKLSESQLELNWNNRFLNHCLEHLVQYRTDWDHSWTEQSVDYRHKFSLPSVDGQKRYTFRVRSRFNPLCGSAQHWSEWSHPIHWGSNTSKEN
Nature of the assay: IC50, method not told in the paragraph.
DLSDLSTFWLSQ (not fully specified, Family 3; also called 248 or 1051) [IL-2Rγc ligand SEQ ID NO: 1051] returned an IC50 of under 10 µM. Same read-out and setting: the figure for DCSMWEGVELCW (also called Peptide F) [IL-2Rγc ligand SEQ ID NO: 224] is under 10 µM; for KVCEMWGGVLLCWN [IL-2Rγc ligand SEQ ID NO: 198] it is under 10 µM. Same read-out and setting: the figure for CPSMLQGPERTWVC [IL-2Rγc ligand SEQ ID NO: 266] is under 10 µM; for MCWLEWGEWVGSCL [IL-2Rγc ligand SEQ ID NO: 236] it is under 10 µM. Still for that read-out and setting: the figure for SLLKCYNASTCASVF [IL-2Rγc ligand SEQ ID NO: 948] is under 10 µM.

RTCTEWENVVLCWV (not fully specified; cysteine pairing not given here) [IL-2Rγc ligand SEQ ID NO: 202] gave an IC50 of under 10 µM.

These data come from patent US20230192767A1 (MEDIKINE, published 2023).
